The record followed here is the supplement of paper PMC10567573.

± gives the standard deviation.

The series in a line: protein stability index of a GFP-peptide fusion (GPS, HEK-293T) (PSI 1-6); higher = more stable. To be noted: c terminus: a fixed tail appended.
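Further: 24-mer peptide tiles fused after GFP, lentivirally expressed, FACS-sorted into six equal bins by GFP/DsRed ratio, decoded by Illumina sequencing, PSI is the read-weighted mean bin number.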

As to CFVKDNPQKSYFIRLYGLQAGRLL [WAS], the protein stability index reads like this: (treatment: DMSO) 2.49 ± 0.58; (treatment: MLN4924 1 uM, 8 h) 2.22 ± 0.45.
As for RLKEYTIKSHSSLPPNNSYADFER [DAPK3], the protein stability index is, setting by setting: (treatment: DMSO) 3.58 ± 0.26; (treatment: MLN4924 1 uM, 8 h) 3.61 ± 0.25.
In the case of HGWLRPEMRTKEQILELLVLEQFL [ZNF263], the protein stability index is, setting by setting: (treatment: DMSO) 2.46 ± 0.47; (treatment: MLN4924 1 uM, 8 h) 2.61 ± 0.43.
On to RADVDHAIEKAFQLWSNVTPLTFT [MMP1], for which the protein stability index reads like this: (treatment: DMSO) 2.13 ± 0.2; (treatment: MLN4924 1 uM, 8 h) 2.44 ± 0.32.
Sequence RELWLKFHEVGTEMIITKAGRRMF [TBX5] yielded a protein stability index (treatment: DMSO) of 2.31 ± 0.23 and a protein stability index (treatment: MLN4924 1 uM, 8 h) of 2.37 ± 0.31.
On to IVEDPQTKCEYMLNSMPKRLCLVC [ESRRG], for which the protein stability index (treatment: DMSO) is 2.39 ± 0.46 and the protein stability index (treatment: MLN4924 1 uM, 8 h) worked out at 2.05 ± 0.24.
The like results for PASGSGADSEPARHIFSFSWLNSL [TRIM55] were, in that order, 2.36 ± 0.16 and 2.5 ± 0.21.
The like results for ALSDAEFEGEGDYEEGMYADWWQE [P3H4] were, in that order, 4.97 ± 0.23 and 5.15 ± 0.17.
In the case of RSALWCLGLNAAFWFFALTSLRLV [RETREG3], the protein stability index by setting is: (treatment: DMSO) 2.91 ± 0.53; (treatment: MLN4924 1 uM, 8 h) 3.03 ± 0.72.
The like results for AQLRLQLEVSQLEGSLQQPKAQSA [SMG5] were, in that order, 3.66 ± 0.24 and 3.7 ± 0.28.
For LIKNNSLPRKRQSLRSSSSKLAQL [INTS3] the same measures were 2.99 ± 0.27 and 3.31 ± 0.17.
In the case of QSGFEMLKDVKSTLEKCEKVKTME [TRIM39], the protein stability index was 5.11 ± 0.2 (treatment: DMSO) and 4.86 ± 0.2 (treatment: MLN4924 1 uM, 8 h).
Take ECLKKFNARRKLKGAILTTMLATR [CAMK2B]: the protein stability index is, setting by setting: (treatment: DMSO) 2.98 ± 0.32; (treatment: MLN4924 1 uM, 8 h) 2.94 ± 0.29.
For the sequence DHVHILDTETFTWSQPITTGKAPS [KLHDC2], the protein stability index is 3.82 ± 0.3 (treatment: DMSO) and 3.84 ± 0.4 (treatment: MLN4924 1 uM, 8 h).
With WGDLLGEDSLAALSSVPSEAQISD [SNAP91], the protein stability index came to 4.76 ± 0.3 (treatment: DMSO) and 4.71 ± 0.22 (treatment: MLN4924 1 uM, 8 h).
For the sequence GKGWKATRLFHDSAVTSVRILQDE [DCAF4], the protein stability index by setting is: (treatment: DMSO) 3.39 ± 0.21; (treatment: MLN4924 1 uM, 8 h) 3.67 ± 0.34.
For the sequence ARYYLVQGLIEDCQLALQQKRETL [KCTD13], the protein stability index runs as follows: (treatment: DMSO) 2.11 ± 0.19; (treatment: MLN4924 1 uM, 8 h) 2.19 ± 0.24.
MAGGPPNTKAEMEMSLAEELNHGR [FATE1] registered a protein stability index (treatment: DMSO) of 5.17 ± 0.14 and a protein stability index (treatment: MLN4924 1 uM, 8 h) of 5.22 ± 0.27.
Regarding EVITAAEFHPHHCNTFVYSSSKGT [PPP2R2B], the protein stability index (treatment: DMSO) came to 3.28 ± 0.3 and the protein stability index (treatment: MLN4924 1 uM, 8 h) is 3.35 ± 0.56.
For SFRAGSKGLSGGFGSRSLYSLGGV [KRT71] the same measures were 2.12 ± 0.21 and 2.77 ± 0.33.
In turn, RDNGDPSLSSTATVLLVLEDEDPE [PCDHGC5] displayed a protein stability index (treatment: DMSO) of 4.94 ± 0.36 and a protein stability index (treatment: MLN4924 1 uM, 8 h) of 5.16 ± 0.12.
For DELQQSFQKSHNSLQRWEHLKKVA [PRIM1] the same measures were 3.76 ± 0.38 and 3.88 ± 0.45.
For the sequence CSSSNLAGNDDSFGSLPSPKELSS [DLC1], the protein stability index stood at 4.37 ± 0.15 (treatment: DMSO) and 4.37 ± 0.27 (treatment: MLN4924 1 uM, 8 h).
QEKKLSFIEALIQQYQEQLDKSTK [TRIM63] gave a protein stability index (treatment: DMSO) of 2.82 ± 0.19 and a protein stability index (treatment: MLN4924 1 uM, 8 h) of 3.11 ± 0.5.
Take QQQHIECVVCGDKSSGKHYGQFTC [NR2F2]: the protein stability index reads like this: (treatment: DMSO) 3.06 ± 0.24; (treatment: MLN4924 1 uM, 8 h) 3.12 ± 0.48.
As to NCKRERDARVKRKLRGPEPAATEA [TBX6], the protein stability index by setting is: (treatment: DMSO) 4.84 ± 0.42; (treatment: MLN4924 1 uM, 8 h) 4.66 ± 0.22.
Regarding ISAEGFTDIDIDTLCAVLERDTLS [BTBD1], the protein stability index runs as follows: (treatment: DMSO) 2.48 ± 0.3; (treatment: MLN4924 1 uM, 8 h) 2.63 ± 0.38.
Turning to GADYPVDGLPDLGHAQDLMDGLPP [CTNNB1], the protein stability index is, setting by setting: (treatment: DMSO) 4.95 ± 0.24; (treatment: MLN4924 1 uM, 8 h) 5.17 ± 0.068.
As for FSDDEEDLNSKGKKREFRFHPIKE [INTS3], the protein stability index amounted to 3.48 ± 0.68 (treatment: DMSO) and 4.04 ± 0.71 (treatment: MLN4924 1 uM, 8 h).
As to EKAKAFWAMRRSYEAIAKHNQVEA [TRIM35], the protein stability index by setting is: (treatment: DMSO) 2.83 ± 0.34; (treatment: MLN4924 1 uM, 8 h) 3.18 ± 0.26.
As for QWEYPYLLSILPSLLGLLSFPRNN [JAGN1], the protein stability index was 2.85 ± 0.25 (treatment: DMSO) and 2.94 ± 0.35 (treatment: MLN4924 1 uM, 8 h).
On to ACGIVSGKYDSGIPPYSRASLKGY [KCNAB2], for which the protein stability index runs as follows: (treatment: DMSO) 2.35 ± 0.21; (treatment: MLN4924 1 uM, 8 h) 2.2 ± 0.12.
Regarding NIYYYLEDDSMSVIEPVVENSGIL [EFHC1], the protein stability index amounted to 2.45 ± 0.43 (treatment: DMSO) and 2.41 ± 0.42 (treatment: MLN4924 1 uM, 8 h).
As to VSAATQLRHFFLVEDLVDSLKLAL [RTN2], the protein stability index reads like this: (treatment: DMSO) 2.56 ± 0.72; (treatment: MLN4924 1 uM, 8 h) 2.49 ± 0.47.
For the sequence RHSNVVILTTSNITEKIDVAFVDR [TRIP13], the protein stability index came out at 2.34 ± 0.29 (treatment: DMSO) and 2.14 ± 0.16 (treatment: MLN4924 1 uM, 8 h).
The like results for IANPNSLNHVKSMWYPEIKHFCPR [RHOBTB1] were, in that order, 2.22 ± 0.13 and 2.4 ± 0.26.
